We go through three molecules from doi:10.1101/854497 (bioRxiv, 2020).

The labels stand for the following.
B2: His6-Pex17p (natural protein, yeast, UniProt P40155 1-199, looked up)
chain: MTSINSFPRNIDWPSNIGIKKIEGTNPTVNAIKGLLYNGGSIYAFLYFVIAMFVEPTLQKQYQQRNDFSLFVLLRLRRIIAQLQKRLVMTPVSSLGFNEQNNFVERSTQTSDDNIIREDNSHWAEMIYQLQNMKQELQYFNRSSGQPSESIDDFVFQIKMVTDQVELTDRSRAFSNKSRNIIQGIREIKGWFVNGQVPR
B3: StrepII-Pex14p(M51L) (natural protein, yeast, UniProt P53112 1-341, looked up)
chain: MSDVVSKDRKALFDSAVSFLKDESIKDAPLLKKIEFLKSKGLTEKEIEIALKEPKKDGIVGDEVSKKIGSTENRASQDMYLYEAMPPTLPHRDWKDYFVMATATAGLLYGAYEVTRRYVIPNILPEAKSKLEGDKKEIDDQFSKIDTVLNAIEAEQAEFRKKESETLKELSDTIAELKQALVQTTRSREKIEDEFRIVKLEVVNMQNTIDKFVSDNDGMQELNNIQKEMESLKSLMNNRMESGNAQDNRLFSISPNGIPGIDTIPSASEILAKMGMQEESDKEKENGSDANKDDNAVPAWKKAREQTIDSNASIPEWQKNTAANEISVPDWQNGQVEDSIP

“And” between values parts separate entries of the source, which are not always exact repeats. Equal entries are not always repeated.

The data set “cross-linking” concerns the molecule itself. The data set is described as follows: cross-linking.
In the data set “StrepII-Pex14p(M51L)” the target is B3. The data set is described as follows: cryo-EM structure.
The data set “native MS + SEC-MALS” deals with the molecule itself. The data set is described as follows: native MS + SEC-MALS.
In the data set “His6-Pex17p” the target is B2. The data set is described as follows: native MS.

B1: Pex14p_(119-341) (domain or fragment, yeast, UniProt P53112 119-341, looked up)
chain: VIPNILPEAKSKLEGDKKEIDDQFSKIDTVLNAIEAEQAEFRKKESETLKELSDTIAELKQALVQTTRSREKIEDEFRIVKLEVVNMQNTIDKFVSDNDGMQELNNIQKEMESLKSLMNNRMESGNAQDNRLFSISPNGIPGIDTIPSASEILAKMGMQEESDKEKENGSDANKDDNAVPAWKKAREQTIDSNASIPEWQKNTAANEISVPDWQNGQVEDSIP
As for B1, the “stoichiometry N” value in “cross-linking” worked out at 3.

Turning to B2, the binding result in the data set with StrepII-Pex14p(M51L) was “binds”.

As to B3, the “stoichiometry N” value is 3 copies in the data set “native MS + SEC-MALS”; 3 Pex14p:Pex17p and 6 Pex14p:Pex17p and 4.5 Pex14p:Pex17p in the data set with His6-Pex17p.
